In one data set the target is T1, p50 (Homo sapiens, UniProt P19838).
T1 construct: gene NFKB1; p50_1-367 (aa 1–367, complete RHD), HIS-tagged
T1 sequence (P19838 1-367): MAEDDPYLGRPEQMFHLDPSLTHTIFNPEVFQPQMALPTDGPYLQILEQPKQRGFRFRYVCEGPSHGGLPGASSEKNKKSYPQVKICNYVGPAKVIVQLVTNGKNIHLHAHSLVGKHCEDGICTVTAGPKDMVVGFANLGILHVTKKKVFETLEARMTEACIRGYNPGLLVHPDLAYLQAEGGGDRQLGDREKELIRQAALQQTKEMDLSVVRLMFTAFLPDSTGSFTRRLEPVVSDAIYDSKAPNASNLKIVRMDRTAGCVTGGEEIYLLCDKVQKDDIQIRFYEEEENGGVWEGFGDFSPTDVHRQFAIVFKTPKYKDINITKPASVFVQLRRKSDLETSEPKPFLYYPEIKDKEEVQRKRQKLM
Briefly: inhibition of dsDNA binding by fluorescence thermal shift assay.

The next data set deals with p65/RelA (Homo sapiens, UniProt Q04206). Briefly: inhibition of […]κB dsDNA binding by fluorescence thermal shift assay (also lowers Tm of the protein without DNA); EMSA. (In EMSA bound probe runs differently from free probe, usually more slowly.)
The target in data set [1] is p65/RelA 1-306 (complete RHD) (human) (UniProt Q04206). Briefly: fluorescence thermal shift (SYPRO Orange). Particulars: apparent KD, two equivalent κB sites considered; 1.5 µM protein; ΔTmax 1.678 °C; Thermal shift: 50 mM Tris-HCl pH 7.5, 225 mM NaCl, 2.25% glycerol, 25 min at 4 °C, then 25-95 °C melt; EMSA: 10 mM Tris-HCl pH 7.5, 0.5 mM EDTA, 65 mM KCl, 5 mM.
In data set [2] the target is T2, p50 1-367 (complete RHD) (human) (UniProt P19838).
T2 sequence: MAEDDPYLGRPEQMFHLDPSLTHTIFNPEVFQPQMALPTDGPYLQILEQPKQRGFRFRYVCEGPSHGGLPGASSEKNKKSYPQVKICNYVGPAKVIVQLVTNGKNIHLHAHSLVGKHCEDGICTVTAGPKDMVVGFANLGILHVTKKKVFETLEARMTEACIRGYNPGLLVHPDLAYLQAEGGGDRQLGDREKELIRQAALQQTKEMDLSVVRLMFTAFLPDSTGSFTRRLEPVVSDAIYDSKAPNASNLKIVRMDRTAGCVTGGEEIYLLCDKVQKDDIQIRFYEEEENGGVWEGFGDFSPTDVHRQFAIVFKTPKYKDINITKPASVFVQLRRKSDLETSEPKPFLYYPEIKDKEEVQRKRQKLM
In words: fluorescence thermal shift (SYPRO Orange). To be noted: apparent KD, two equivalent κB sites considered; 1.5 µM protein; ΔTmax 2.462 °C; Thermal shift: 50 mM Tris-HCl pH 7.5, 225 mM NaCl, 2.25% glycerol, 25 min at 4 °C, then 25-95 °C melt; EMSA: 10 mM Tris-HCl pH 7.5, 0.5 mM EDTA, 65 mM KCl, 5 mM.

Data set [3] concerns the target p65/RelA 1-306 (complete RHD) (human, UniProt Q04206 1-306). Briefly: fluorescence thermal shift (SYPRO Orange); 10 µM DNA, 1.5 µM protein; Tm raised about 1-1.5 °C (1κB and 2κB range); Thermal shift: 50 mM Tris-HCl pH 7.5, 225 mM NaCl, 2.25% glycerol, 25 min at 4 °C, then 25-95 °C melt; EMSA: 10 mM Tris-HCl pH 7.5, 0.5 mM EDTA, 65 mM KCl, 5 mM MgCl2, 1 mM DTT, 100 µg/mL BSA, 10% glycerol, 50 ng/µl poly(dI-dC), 45 min at 30 °C. Particulars: protein: recombinant; chain copies: 2; label: none; only one strand given.

The target of another data set is p50 1-367 (complete RHD) (human, UniProt P19838 1-367). Briefly: fluorescence thermal shift (SYPRO Orange); 10 µM DNA, 1.5 µM protein; Tm raised about 2-3 °C (1κB and 2κB range); Thermal shift: 50 mM Tris-HCl pH 7.5, 225 mM NaCl, 2.25% glycerol, 25 min at 4 °C, then 25-95 °C melt; EMSA: 10 mM Tris-HCl pH 7.5, 0.5 mM EDTA, 65 mM KCl, 5 mM MgCl2, 1 mM DTT, 100 µg/mL BSA, 10% glycerol, 50 ng/µl poly(dI-dC), 45 min at 30 °C. To be noted: protein: recombinant; tags: His, N-terminal Myc; chain copies: 2; label: none; only one strand given.

Sequence of p65/RelA 1-306 (complete RHD) (human) (Q04206 1-306): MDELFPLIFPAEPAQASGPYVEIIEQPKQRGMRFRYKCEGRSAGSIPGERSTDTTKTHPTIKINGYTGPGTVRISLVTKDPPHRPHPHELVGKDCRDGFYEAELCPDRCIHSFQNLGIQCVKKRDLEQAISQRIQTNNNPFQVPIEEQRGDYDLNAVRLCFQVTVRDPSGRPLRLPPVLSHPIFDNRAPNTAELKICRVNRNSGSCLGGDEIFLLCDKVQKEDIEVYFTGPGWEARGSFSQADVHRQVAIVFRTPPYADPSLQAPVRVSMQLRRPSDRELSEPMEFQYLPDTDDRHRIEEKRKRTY
Sequence of p65/RelA 1-306 (complete RHD) (Q04206 1-306): as above
Sequence of p65/RelA (Q04206 1-306): as above

`CC1=C(CO)C(=O)O[C@@H]([C@@H](C)[C@H]2CC[C@H]3[C@@H]4C[C@H]5O[C@]56[C@@H](O)C=CC(=O)[C@]6(C)[C@H]4CC[C@]23C)C1` [WFA, withaferin A]: the IC50 (commonly the concentration that inhibits the measured activity by half) on p50 was about 19.1 µM; on p65/RelA, about 16.4 µM.

In the case of “AATTCGGGACTTTCCCGTCGGGACTTTCC (double strand) [2κB dsDNA]”, the Kd was 2.23 µM in data set [1] and 0.794 µM in data set [2].

B1: 1κB dsDNA (dsDNA)
DNA 1: AGTTGAGGGGACTTTCCCAGGC
DNA 2: GCCTGGGAAAGTCCCCTCAACT
On to B1, for which the binding result (in data set [3]; with p50 1-367 (complete RHD)) was “binds” throughout.

Values taken from PMC7840993, “Fluorescent thermal shift-based method for detection of NF-κB binding to double-stranded DNA” (Scientific Reports, 2021).
